Where “and” joins values, the source holds several entries; their conditions need not be identical. Identical values can stand only once.
Experiments:
[1] = target: rHuman CD44/Fc Chimera, CF (R&D Systems Cat#3660-CD) (human) (UniProt P16070); experiment: MSD multispot ECL, antigen spotted on plate, Fab at 6 nM (blank spot 191)
[2] = target: rHuman EGF R/Fc Chimera, CF (R&D Systems Cat#344-ER) (human) (UniProt P00533); experiment: as above
[3] = target: rHuman ErbB2/Fc Chimera, CF (R&D Systems Cat#1129-ER) (human) (UniProt P04626); experiment: as above
[4] = target: rHuman Erythropoietin R/Fc Chimera, CF (R&D Systems Cat#963-ER) (human) (UniProt P19235); experiment: as above
rHuman Erythropoietin R/Fc Chimera, CF (R&D Systems Cat#963-ER) (human), sequence (P19235 25-250, change not shown): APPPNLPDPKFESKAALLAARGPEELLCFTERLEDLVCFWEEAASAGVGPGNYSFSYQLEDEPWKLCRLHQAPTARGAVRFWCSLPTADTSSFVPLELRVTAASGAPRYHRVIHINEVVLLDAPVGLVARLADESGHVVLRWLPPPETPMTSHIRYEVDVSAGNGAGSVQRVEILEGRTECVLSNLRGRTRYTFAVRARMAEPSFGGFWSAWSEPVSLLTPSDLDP

[5] = target: rHuman HGF R/c-MET/Fc Chimera, CF (R&D Systems Cat#358-MT/CF) (human) (UniProt P08581); experiment: as above
rHuman HGF R/c-MET/Fc Chimera, CF (R&D Systems Cat#358-MT/CF) (human), sequence (P08581 25-932, change not shown): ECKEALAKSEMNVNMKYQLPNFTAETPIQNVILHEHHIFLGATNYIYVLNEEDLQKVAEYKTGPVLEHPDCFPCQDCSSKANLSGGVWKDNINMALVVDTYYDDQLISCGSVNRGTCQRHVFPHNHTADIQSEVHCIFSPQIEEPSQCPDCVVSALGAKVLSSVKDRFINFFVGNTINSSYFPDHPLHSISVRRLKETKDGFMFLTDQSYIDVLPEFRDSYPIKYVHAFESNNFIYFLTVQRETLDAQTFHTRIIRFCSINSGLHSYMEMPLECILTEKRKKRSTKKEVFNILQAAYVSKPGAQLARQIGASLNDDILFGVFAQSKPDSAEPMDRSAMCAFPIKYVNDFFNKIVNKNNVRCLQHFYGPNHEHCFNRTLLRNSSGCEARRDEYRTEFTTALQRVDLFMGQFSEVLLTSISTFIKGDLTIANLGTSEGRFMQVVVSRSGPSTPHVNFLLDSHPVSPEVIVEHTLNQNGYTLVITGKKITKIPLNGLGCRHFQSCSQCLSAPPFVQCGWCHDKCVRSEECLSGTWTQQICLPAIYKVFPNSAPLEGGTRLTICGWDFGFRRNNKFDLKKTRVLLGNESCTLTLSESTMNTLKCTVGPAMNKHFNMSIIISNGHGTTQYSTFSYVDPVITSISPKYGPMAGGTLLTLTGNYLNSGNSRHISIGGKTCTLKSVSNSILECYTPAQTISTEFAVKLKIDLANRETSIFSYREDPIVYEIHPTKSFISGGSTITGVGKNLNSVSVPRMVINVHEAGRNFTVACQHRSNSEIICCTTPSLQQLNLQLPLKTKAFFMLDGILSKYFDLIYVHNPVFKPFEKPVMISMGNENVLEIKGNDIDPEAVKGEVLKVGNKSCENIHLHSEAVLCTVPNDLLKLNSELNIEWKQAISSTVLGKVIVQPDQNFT

[6] = target: rHuman IGF-1 sR, CF (R&D Systems Cat#391-GR) (human) (UniProt P08069); experiment: as above
[7] = target: rHuman Notch-1/Fc Chimera, CF (R&D Systems Cat#3647-TK) (human) (UniProt P46531); experiment: as above
[8] = target: rHuman P-Cadherin/Fc Chimera, CF (R&D Systems Cat#861-PC) (human) (UniProt P22223); experiment: as above
[9] = target: rHuman CD44/Fc Chimera, CF (R&D Systems Cat#3660-CD) (human) (UniProt P16070); experiment: MSD multispot ECL, antigen spotted on plate, Fab at 17 nM (blank spot 143)
[10] = target: rHuman EGF R/Fc Chimera, CF (R&D Systems Cat#344-ER) (human) (UniProt P00533); experiment: as above
[11] = target: rHuman ErbB2/Fc Chimera, CF (R&D Systems Cat#1129-ER) (human) (UniProt P04626); experiment: as above
[12] = target: rHuman Erythropoietin R/Fc Chimera, CF (R&D Systems Cat#963-ER) (human) (UniProt P19235); experiment: as above
[13] = target: rHuman HGF R/c-MET/Fc Chimera, CF (R&D Systems Cat#358-MT/CF) (human) (UniProt P08581); experiment: as above
[14] = target: rHuman IGF-1 sR, CF (R&D Systems Cat#391-GR) (human) (UniProt P08069); experiment: as above
[15] = target: rHuman Notch-1/Fc Chimera, CF (R&D Systems Cat#3647-TK) (human) (UniProt P46531); experiment: as above
[16] = target: rHuman P-Cadherin/Fc Chimera, CF (R&D Systems Cat#861-PC) (human) (UniProt P22223); experiment: as above
[17] = target: rHuman CD44/Fc Chimera, CF (R&D Systems Cat#3660-CD) (human) (UniProt P16070); experiment: MSD multispot ECL, antigen spotted on plate, Fab at 51 nM (blank spot 335)
[18] = target: rHuman EGF R/Fc Chimera, CF (R&D Systems Cat#344-ER) (human) (UniProt P00533); experiment: as above
[19] = target: rHuman ErbB2/Fc Chimera, CF (R&D Systems Cat#1129-ER) (human) (UniProt P04626); experiment: as above
[20] = target: rHuman Erythropoietin R/Fc Chimera, CF (R&D Systems Cat#963-ER) (human) (UniProt P19235); experiment: as above
[21] = target: rHuman HGF R/c-MET/Fc Chimera, CF (R&D Systems Cat#358-MT/CF) (human) (UniProt P08581); experiment: as above
[22] = target: rHuman IGF-1 sR, CF (R&D Systems Cat#391-GR) (human) (UniProt P08069); experiment: as above
[23] = target: rHuman Notch-1/Fc Chimera, CF (R&D Systems Cat#3647-TK) (human) (UniProt P46531); experiment: as above
[24] = target: rHuman P-Cadherin/Fc Chimera, CF (R&D Systems Cat#861-PC) (human) (UniProt P22223); experiment: as above
[25] = target: rHuman CD44/Fc Chimera, CF (R&D Systems Cat#3660-CD) (human) (UniProt P16070); experiment: MSD multispot ECL, antigen spotted on plate, Fab at 154 nM (blank spot 447)
[26] = target: rHuman EGF R/Fc Chimera, CF (R&D Systems Cat#344-ER) (human) (UniProt P00533); experiment: as above
[27] = target: rHuman ErbB2/Fc Chimera, CF (R&D Systems Cat#1129-ER) (human) (UniProt P04626); experiment: as above
[28] = target: rHuman Erythropoietin R/Fc Chimera, CF (R&D Systems Cat#963-ER) (human) (UniProt P19235); experiment: as above
[29] = target: rHuman HGF R/c-MET/Fc Chimera, CF (R&D Systems Cat#358-MT/CF) (human) (UniProt P08581); experiment: as above
[30] = target: rHuman IGF-1 sR, CF (R&D Systems Cat#391-GR) (human) (UniProt P08069); experiment: as above
[31] = target: rHuman Notch-1/Fc Chimera, CF (R&D Systems Cat#3647-TK) (human) (UniProt P46531); experiment: as above
[32] = target: rHuman P-Cadherin/Fc Chimera, CF (R&D Systems Cat#861-PC) (human) (UniProt P22223); experiment: as above
[33] = target: Recombinant Human DLL4 (human) (UniProt Q9NR61); experiment: ECL (MSD) multispot binding assay, DLL4 signal over blank spot
[34] = target: Recombinant Human DLL4 (human) (UniProt Q9NR61); experiment: ECL (MSD) multispot binding assay, DLL4 spotted on plate, Fab in solution
[35] = target: Recombinant Human DLL4 (delta-like protein 4) (human) (UniProt Q9NR61); experiment: ECL multispot (MSD) binding assay; antigen spotted on plate, Fab in solution
[36] = target: rHuman P-Cadherin/Fc Chimera, CF (R&D Systems Cat#861-PC) (human) (UniProt P22223); experiment: MSD multispot ECL, antigen spotted, Fab […]; blank spot 234
[37] = target: rHuman P-Cadherin/Fc Chimera, CF (R&D Systems Cat#861-PC) (human) (UniProt P22223); experiment: MSD multispot ECL, antigen spotted, Fab 0.1 nM; blank spot 201
[38] = target: rHuman P-Cadherin/Fc Chimera, CF (R&D Systems Cat#861-PC) (human) (UniProt P22223); experiment: MSD multispot ECL, antigen spotted, Fab 0.6 nM; blank spot 226
[39] = target: rHuman P-Cadherin/Fc Chimera, CF (R&D Systems Cat#861-PC) (human) (UniProt P22223); experiment: MSD multispot ECL, antigen spotted, Fab 9.3 nM; blank spot 287
[40] = target: rHuman P-Cadherin/Fc Chimera, CF (R&D Systems Cat#861-PC) (human) (UniProt P22223); experiment: MSD multispot ECL, antigen spotted, Fab 2383 nM; blank spot 344
[41] = target: rHuman P-Cadherin/Fc Chimera, CF (R&D Systems Cat#861-PC) (human) (UniProt P22223); experiment: MSD multispot ECL, antigen spotted, Fab 37.2 nM; blank spot 199
[42] = target: rHuman P-Cadherin/Fc Chimera, CF (R&D Systems Cat#861-PC) (human) (UniProt P22223); experiment: MSD multispot ECL, antigen spotted, Fab 148.9 nM; blank spot 218
[43] = target: rHuman P-Cadherin/Fc Chimera, CF (R&D Systems Cat#861-PC) (human) (UniProt P22223); experiment: MSD multispot ECL, antigen spotted, Fab 595.8 nM; blank spot 285
[44] = target: rHuman P-Cadherin/Fc Chimera, CF (R&D Systems Cat#861-PC) (human) (UniProt P22223); experiment: MSD ECL multispot assay, antigen spotted on plate, Fab in solution; blank spot of this row 348
[45] = target: rHuman P-Cadherin/Fc Chimera, CF (R&D Systems Cat#861-PC) (human) (UniProt P22223); experiment: MSD ECL multispot assay, antigen spotted on plate, Fab in solution; blank spot of this row 504

Question: For “Fab VH5-51_IGHD5-18*01>3_IGHJ4*01 & V3-4_IGLJ1*01”, which ECL signal [1] is on record?
Answer: Its ECL signal is 547.

Question: What about the ECL signal [2] of the same substance?
Answer: The ECL signal was 742.

Question: What about the ECL signal [3] of the same substance?
Answer: Its ECL signal is 873.

Question: What about the ECL signal [4] of the same substance?
Answer: Its ECL signal is 548.

Question: What about the ECL signal [5] of the same substance?
Answer: The ECL signal was 831.

Question: What about the ECL signal [6] of the same substance?
Answer: Its ECL signal is 854.

Question: And the ECL signal [7]?
Answer: The ECL signal was 464.

Question: What about the ECL signal [8] of the same substance?
Answer: Its ECL signal is 358.

Question: What about the ECL signal [9] of the same substance?
Answer: The ECL signal was 518.

Question: What about the ECL signal [10] of the same substance?
Answer: The ECL signal was 805.

Question: And the ECL signal [11]?
Answer: The ECL signal was 1030.

Question: What about the ECL signal [12] of the same substance?
Answer: Its ECL signal is 620.

Question: And the ECL signal [13]?
Answer: Its ECL signal is 914.

Question: What about the ECL signal [14] of the same substance?
Answer: Its ECL signal is 872.

Question: What about the ECL signal [15] of the same substance?
Answer: The ECL signal was 558.

Question: What about the ECL signal [16] of the same substance?
Answer: The ECL signal was 542.

Question: What about the ECL signal [17] of the same substance?
Answer: The ECL signal was 651.

Question: What about the ECL signal [18] of the same substance?
Answer: The ECL signal was 816.

Question: And the ECL signal [19]?
Answer: Its ECL signal is 1250.

Question: What about the ECL signal [20] of the same substance?
Answer: The ECL signal was 750.

Question: What about the ECL signal [21] of the same substance?
Answer: Its ECL signal is 1040.

Question: And the ECL signal [22]?
Answer: Its ECL signal is 1050.

Question: What about the ECL signal [23] of the same substance?
Answer: The ECL signal was 685.

Question: And the ECL signal [24]?
Answer: Its ECL signal is 854.

Question: And the ECL signal [25]?
Answer: Its ECL signal is 960.

Question: And the ECL signal [26]?
Answer: The ECL signal was 1400.

Question: What about the ECL signal [27] of the same substance?
Answer: Its ECL signal is 1590.

Question: And the ECL signal [28]?
Answer: The ECL signal was 1200.

Question: What about the ECL signal [29] of the same substance?
Answer: Its ECL signal is 1520.

Question: And the ECL signal [30]?
Answer: The ECL signal was 1400.

Question: What about the ECL signal [31] of the same substance?
Answer: The ECL signal was 929.

Question: What about the ECL signal [32] of the same substance?
Answer: Its ECL signal is 1730.

Question: Which Signal/Blank [33] does the source give for “Fab VH1-46_IGHD6-6*01_IGHJ1*01 S102A/S103P/S104F/H111F (APFF) & L6_IGKJ1*01 S92R” here?
Answer: The Signal/Blank was 1.7.

Question: And the ECL signal [34]?
Answer: Its ECL signal is 418.

Question: And the ECL signal [35]?
Answer: Its ECL signal is 418 and 587.

Question: What does the source list for “Fab VH1-46_IGHD6-6*01_IGHJ1*01 & L6_IGKJ1*01”?
Answer: ECL signal [36]: 401 ECL signal; ECL signal [37]: 235 ECL signal; ECL signal [38]: 321 ECL signal; ECL signal [39]: 452 ECL signal; ECL signal [40]: 728 ECL signal; ECL signal [41]: 649 ECL signal; ECL signal [42]: 687 ECL signal; ECL signal [43]: 617 ECL signal

Question: For “Fab VH1-46_IGHD6-6*01_IGHJ1*01 S102A/S103P/S104F/H111F (APFF) & L6_IGKJ1*01 S92C”, which ECL signal [44] is on record?
Answer: Its ECL signal is 786.

Question: What about the ECL signal [45] of the same substance?
Answer: The ECL signal was 930.

Reference: US20120316071A1
